The text below walks through data of patent US20050042720A1, “Novel promiscuous G alpha protein mutants and their use” (7TM Pharma A/S, priority 2003, published 2005).

Residue numbers refer to the chain shown, from its start. Names may count otherwise.

What all share (assay type): cell-based
The test system of test [1] is chemokine CXCR1 and dopamine D2 receptor. As to the kind of experiment: Calcium mobilization assay in COS7 cells cotransfected with receptor and Gα16 constructs. Conditions: CXCR1 (interleukin 8) and D2 ((−)quinpirole) receptors, FIG. 13. The protocol: 24 h after transfection, COS7 cells were split into 96 well plates at a density of ˜30,000 cells per well. 18-24 h later cells were loaded with a calcium sensitive dye (calcium assay kit from Molecular devices) for 1 h (37 C, 5% CO2) and then for 1 h at room temperature. Ligands were transferred to the cell plate from the sample plate using the Novostar's integrated pipette. To obtain the specific fluorescence response, baseline fluorescence counts before addition of ligands were subtracted from the peak of the calcium response Specific responses were used to plot the concentration response curve.
Murine Wild type Gα16 was cloned as described above. […] was prepared with the Stratagene quick change mutagenesis kit according to the manufacturers instructions. The correctness of all PCR-derived sequences was verified by sequencing in both directions.
COS7 cells were grown and transfected as described above.
24 h after transfection, COS7 cells were split into 96 well plates at a density of […] cells per well. 18-24 h later cells were loaded with a calcium sensitive dye (calcium assay kit from Molecular devices) for 1 h (37 C, 5% CO2) and then for 1 h at room temperature. […] To obtain the specific fluorescence response, baseline fluorescence counts before addition of ligands were subtracted from the peak of the calcium response. […]

Test [2] relates to phospholipase Cβ. Kind of test: Basal IP formation in COS7 cells transfected with Gα subunit alone (constitutive activity). The conditions noted are these: no receptor, no ligand, FIG. 6. The protocol:
Basal IP3 formation was determined in COS7 cells transiently transfected with vector DNA, Gαqwt, GαqG66D and the constitutively active Gα15Q212L mutant as described in detail in the Examples. Data represent mean values±SEM of 4 independent experiments performed in duplicate.
COS7 cells were grown in Dulbecco's modified Eagles medium supplemented with 10% (vol/vol) fetal calf serum, Penicillin-Streptomycin (10000 IU/ml-10000 μg/ml) and 2 mM L-Glutamin in a humidified 5% CO2 incubator. For transfections, 1×10^6 cells were seeded into 100-mm dishes. About 24 h later, cells were cotransfected with the indicated G protein and receptor constructs (1:1 ratio) by using the Fugene transfection reagent as per manufacturer's instructions.
18-24 h after transfections cells were split into 35 mm dishes in culture medium supplemented with 3 μCi/ml [3H]myo-inositol (20 Ci/mmol: Amersham). […] Cells were then stimulated in the same buffer with the appropriate agonist ligands for 45 min (37° C.), and increases in intracellular inositolphosphate determined by anion exchange chromatography as described (Kostenis et al., 1997)
To test whether the mutant Gαq subunit differs from Gαq wt in its ability to signal to phospholipase Cβ, plasmids encoding the respective cDNAs were transiently transfected into COS7 cells and IP1 accumulation was measured.

The subject of test [3] is phospholipase Cβ. As to the kind of experiment: PI-hydrolysis assay in COS7 cells cotransfected with receptor and mutant/chimeric Gαq subunits (Example 3). From the text:
Murine wild type Gαq was cloned from mouse brain by RT-PCR and inserted into the BamHI-NslI-sites of pcDNA1.1. All wild type and mutant Gα subunits contained an internal hemagglutinin epitope tag DVPDYA (Wedegaertner et al., 1993) replacing Gαqwt residues 125-130. To create the C-terminally modified Gαqi5 subunit, in which the last five aa of wt Gαq were replaced with the corresponding Gαi sequence, a 175-bp BglII-NslI fragment was replaced, in a two piece ligation, with a synthetic DNA fragment, containing the desired codon changes. Gαqs5/z5 were prepared in an analogous fashion. GαqG66x mutants were prepared with the Stratagene quick change mutagenesis kit according to the manufacturer's instructions. To generate GαqG66Xi5/s5/z5(X=D,V,N,K), a 175 bp BglII-NsiI fragment was removed from GαqG66X and replaced with the corresponding BglII-NsiI fragment of Gαqi5 and Gαqs5/z5, respectively. The correctness of all PCR-derived sequences was verified by sequencing in both directions. […]
18-24 h after transfections cells were splitted into 35-mm dishes in culture medium supplemented with 3 μCi/ml [3H]myo-inositol (20 Ci/mmol; Amersham). […] Cells were then stimulated in the same buffer with the appropriate agonist ligands for 1 h (37° C.), and increases in intracellular inositolphosphate determined by anion exchange chromatography as described (Kostenis et al., 1997).

B1: Gα16G69D: Gα16 with glycine 69 to aspartate mutation in linker I; SEQ ID No 5 (protein, listed as Homo sapiens)
chain: MARSLTWRCCPWCLTEDEKAAARVDQEINRILLEQKKQDRGELKLLLLGPGESGKSTFIKQMRIIHGAXYSEEERKGFRPLVYQNIFVSMRAMIEAMERLQIPFSRPESKHHASLVMSQDPYKVTTFEKRYAAAMQWLWRDAGIRACYERRREFHLLDSAVYYLSHLERITEEGYVPTAQDVLRSRMPTTGINEYCFSVQKTNLRIVDVGGQKSERKKWIHCFENVIALIYLASLSEYDQCLEENNQENRMKESLALFGTILELPWFKSTSVILFLNKTDILEEKIPTSHLATYFPSFQGPKQDAEAAKRFILDMYTRMYTGCVDGPEGSKKGARSRRLFSHYTCATDTQNIRKVFKDVRDSVLARYLDEINLL
modifications: (69)..(69) Xaa is selected from the group consisting of Asp, Val, Asn and Lys
As to B1, the “agonist-induced intracellular calcium mobilization” value in test [1] is listed as “significantly increased”.

B2: Gα16: Murine wild type Gα16 (protein, UniProt P30678 1-374, looked up)
Guanine nucleotide-binding …: MARSLTWGCCPWCLTEEEKTAARIDQEINRILLEQKKQEREELKLLLLGPGESGKSTFIKQMRIIHGVGYSEEDRRAFRLLIYQNIFVSMQAMIDAMDRLQIPFSRPDSKQHASLVMTQDPYKVSTFEKPYAVAMQYLWRDAGIRACYERRREFHLLDSAVYYLSHLERISEDSYIPTAQDVLRSRMPTTGINEYCFSVKKTKLRIVDVGGQRSERRKWIHCFENVIALIYLASLSEYDQCLEENDQENRMEESLALFSTILELPWFKSTSVILFLNKTDILEDKIHTSHLATYFPSFQGPRRDAEAAKSFILDMYARVYASCAEPQDGGRKGSRARRFFAHFTCATDTQSVRSVFKDVRDSVLARYLDEINLL
For B2, in test [1], the “agonist-induced intracellular calcium mobilization” value is “gain the ability to stimulate calcium mobilization”.

B3: Gα15Q212L: GTPase defective, constitutively active Gα15 mutant replacing Glutamine 212 by Leucine (protein, UniProt P30678 1-374, looked up, variant Q212L)
Guanine nucleotide-binding …: B2 Guanine nucleotide-binding … with Q212L
Turning to B3, the “basal IP1 accumulation / ability to activate PLCβ (constitutive activity)” value with phospholipase Cβ [2] is “robust IP1 increase”.

B4: GαqG66Di5: Gαq combining G66D linker I mutation with C-terminal five amino acids of Gαi; SEQ ID No. 6 (protein, listed as Mus musculus)
chain: MTLESIMACCLSEEAKEARRINDEIERHVRRDKRDARRELKLLLLGTGESGKSTFIKQMRIIHGSXYSDEDKRGFTKLVYQNIFTAMQAMIRAMDTLKIPYKYEHNKAHAQLVREVDVEKVSAFENPYVDAIKSLWNDPGIQECYDRRREYQLSDSTKYYLNDLDRVADPSYLPTQQDVLRVRVPTTGIIEYPFDLQSVIFRMVDVGGQRSERRKWIHCFENVTSIMFLVALSEYDQVLVESDNENRMEESKALFRTIITYPWFQNSSVILFLNKKDLLEEKIMYSHLVDYFPEYDGPQRDAQAAREFILKMFVDLNPDSDKIIYSHFTCATDTENIRFVFAAVKDTILQLNLKDCGLF
modifications: (66)..(66) Xaa is selected from the group consisting of Asp, Val, Asn and Lys
Turning to B4, the “agonist-induced IP3 / PLCβ activity” value in the test on phospholipase Cβ [3] (Gi/o coupled receptors CXCR2, CCR5, SSTR1, KOR, GPR7, HM74a, NPY4, M2, P2Y12, FIG. 11) is recorded as “robust IP3 increases exceeding those observed upon coexpression with the C-terminal or the G66D mutant alone”.

B5: GαqG66Ds5: Gαq combining G66D linker I mutation with C-terminal five amino acids of Gαs; SEQ ID No. 7 (protein, listed as Mus musculus)
chain: B4 chain with D355Q, C356Y, G357E, F359L
modifications: (66)..(66) Xaa is selected from the group consisting of Asp, Val, Asn and Lys
B5: the “response (stimulation of PLCβ) versus individual mutants” value in the test on phospholipase Cβ [3] (coexpressed non-Gq-selective receptor, Gs-linked GLP1, GIP, DP, adrenergic β2 (FIG. 12)) is listed as “robust response exceeding the response observed upon coexpression with the C-terminal or the GαwG66D mutant alone”.
